Assay results from patent publication CN113321729A (DONGDA BIOTECHNOLOGY SUZHOU CO LTD, dated 2021).

B1: 1B6 (antibody, V domains shown)
VH: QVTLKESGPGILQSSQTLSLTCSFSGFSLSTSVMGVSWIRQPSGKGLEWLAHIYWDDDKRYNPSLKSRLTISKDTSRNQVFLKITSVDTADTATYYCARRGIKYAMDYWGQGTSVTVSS
VL: NIVMTQTPKFLLVSAGDRVTITCKASQSVSNDVAWYQQKPGQSPKLLIYYASNRYTGVPDRFTGSGYGTDFTFTISTVQAEDLAVYFCQQDYTSPWTFGGGTKLEIK
notes: Mouse hybridoma antibody purified on Protein A; also called IL-12杂交瘤抗体
B2: 2A3 (antibody, V domains shown)
VH: EVQLQQSGAELVKPGASVKLSCTASGFNIKDTYMHWLKQRPEQGLEWIGKIDPANGNTKYDPKFQGKATITADTSSNTAYLQLSSLTSEDTAVYYCSRRFYDSGFYYYFYIWGAGTTVTVSS
VL: NIMMTQSPSSLAVSAGEKVTMYCKSSQSVLYSSNQKNYLAWYQQKPGQSPKLLISWASTRESGVPDRFTGSGSGTDFTLTISSVQAEDLAVYYCHQYLSSLTFGAGTKLELK
notes: as for B1
B3: 19A4 (antibody, V domains shown)
VH: EVQLVESGGGLVKPGGSLQVSCAASGFSFSSYGMSWVRQTPDKRLEWVATIGSGGLYTYSPDTVKGRFSISRDDAKNTLYLQMNSLTSEDTAMYYCATSGPFAYWGQGTLVTVSA
VL: DIKMTQSPSSMYASLGERVTITCKASQDINRNLNWFQQKPGNSPKTLIIRTNRLVDGVPSRFSGSGSGQVYSLTVSSLEFGDMGIYFCLQFDEFPWTFGGGTTLEIK
notes: as for B1
B4: 9E2 (antibody, V domains shown)
VH: EVQLQQSGAELVRPGASVKLSCTASGVNIKDYYMHWVKQRPEKGLEWIGMIDPEDGDTEYAPRFQAKATMTADTSSNTAYLQLNSLTSEDTAVYYCTITTVVRYFDVWGTGTTVRVSS
VL: DLVLSQSPATLSVTPGDSVSLSCRASQSISINLHWYQQKSHESPRLLIKYASQSISGIPSRFSGSGSGTDFTLSINSVETEDFGMYFCQQSNSWPFTFGGGTKLEIK
notes: as for B1
B5: Ustekinumab (antibody, V domains shown)
VH: EVQLVQSGAEVKKPGESLKISCKGSGYSFTTYWLGWVRQMPGKGLDWIGIMSPVDSDIRYSPSFQGQVTMSVDKSITTAYLQWNSLKASDTAMYYCARRRPGQGYFDFWGQGTLVTVSS
VL: DIQMTQSPSSLSASVGDRVTITCRASQGISSWLAWYQQKPEKAPKSLIYAASSLQSGVPSRFSGSGSGTDFTLTISSLQPEDFATYYCQQYNIYPYTFGQGTKLEIK
B6: hu2A3 (antibody, V domains shown)
VH: QVQLVQSGAEVKKPGASVKVSCKASGFNIKDTYMHWVRQAPGQRLEWIGKIDPANGNTKYDPKFQGRATITADTSASTAYMELSSLRSEDTAVYYCSRRFYDSGFYYYFYIWGQGTLVTVSS
VL: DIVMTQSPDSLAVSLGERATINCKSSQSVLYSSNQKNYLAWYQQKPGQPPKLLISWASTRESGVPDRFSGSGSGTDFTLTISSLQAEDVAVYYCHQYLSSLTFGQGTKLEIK
notes: also called 2A3人源化抗体; 人源化抗体2A3
B7: hu11B4 (antibody, V domains shown)
VH: QVQLVQSGAEVKKPGASVKVSCKASGYAFTDYKMHWVRQAPGQRLEWIGHIYTYNGGADYNQKFKNRATLTVDISASTAYMELSSLRSEDTAVYYCATSGPFAYWGQGTLVTVSS
VL: EIVMTQSPATLSVSPGERATLSCKASQNVGTNVAWYQQKPGQAPRALIYSASKRFSGIPARFSGSGSGTEFTLTISSLQSEDFAVYYCLQYNNFPFTFGQGTKLEIK
notes: also called 11B4人源化抗体; 人源化抗体11B4

What follows are binders tested against T1, 携带组氨酸标签的人IL-12(IL-12-His) (human, UniProt P29459 23-219; P29460 23-328) (assay: ELISA, IL-12-His coated on plate).
T1 construct: Recombinant His-tagged human IL-12 made in mammalian cells; Coated on the plate in the ELISA; also called IL-12蛋白; biotin标记的IL-12-His
T1 sequence (looked up) 1: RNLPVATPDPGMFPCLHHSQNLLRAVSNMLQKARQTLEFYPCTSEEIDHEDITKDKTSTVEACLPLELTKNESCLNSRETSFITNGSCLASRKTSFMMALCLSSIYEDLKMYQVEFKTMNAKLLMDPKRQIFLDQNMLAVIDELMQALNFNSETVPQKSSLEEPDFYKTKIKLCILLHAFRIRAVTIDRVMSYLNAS
T1 sequence (looked up) 2: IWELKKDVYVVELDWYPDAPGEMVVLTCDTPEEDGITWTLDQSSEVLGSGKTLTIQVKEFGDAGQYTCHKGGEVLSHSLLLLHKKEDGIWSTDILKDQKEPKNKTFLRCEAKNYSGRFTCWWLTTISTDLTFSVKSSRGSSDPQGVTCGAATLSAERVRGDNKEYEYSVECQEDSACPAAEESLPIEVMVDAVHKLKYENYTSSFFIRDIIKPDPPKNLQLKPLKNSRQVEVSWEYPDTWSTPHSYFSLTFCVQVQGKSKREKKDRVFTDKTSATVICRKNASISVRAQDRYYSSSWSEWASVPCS

Row | Binder | binding result
1 | B1 | binds
2 | B2 | binds
3 | B3 | binds
4 | B4 | binds

Target: T1, 携带组氨酸标签的人IL-12(IL-12-His)
Experiment: ELISA, IL-12-His coated on plate
Remark: another data set of the same source

Row | Binder | EC50 [µg/mL]
5 | B5 | 0.0718
6 | B6 | 0.0571
7 | B7 | 0.0517

Each binder was assayed against T1, 携带组氨酸标签的人IL-12(IL-12-His) (assay: FACS, blocking of biotin-labelled IL-12-His binding to CHO-IL-12R cells).

Row | Binder | IC50 [µg/mL]
8 | B5 | 0.224
9 | B6 | 0.398
10 | B7 | 0.323
